In the RNAGym collection of RNA variant scans (doi:10.7554/elife.90254):

B1: LINE1-full (parent)
chain: UACGUAGGUGGUUUUCCCCUGAUAGUGCUAAGGGGGCCUGGAAGUUUGGACUGGGCAGAGCUCAACACAGCGUGGCAAAGUGGCUGUGGCUAGACUGCCUCUCUGGAUUCCUCGUCACUCAGCAGGGCAUCUCUGAGAGAAAUGCC

Variants of: B1
Assay: self-cleavage, relative activity (ratio to wild type); higher = more cleavage; in vitro, sequencing; the parent is a self-cleaving ribozyme

Row | Variant | self-cleavage
1 | A50G U143C | 0.95
2 | U26G A107G | 0
3 | A92C U112C | 0.18
4 | U12C A77G | 1.8
5 | U81C A141G | 1.07
6 | A140G C145A | 1.28
7 | A24U U102C | 1.09
8 | A22G C37U | 0.94
9 | U62C A107U | 0.06
10 | C99A A107G | 0.61
11 | A50G C128U | 0.36
12 | G54A A140G | 0.73
13 | U20C U100C | 1.69
14 | U132C U143C | 1.24
15 | U12C G106A | 1.68
16 | U46A U62A | 0.04
17 | G34A U100C | 1.37
18 | A69U A79G | 0.05
19 | G80A U112C | 1.43
20 | G93U U109C | 0.02
21 | G36U U108C | 1.62
22 | G88A A138G | 0.06
23 | U47G A92G | 0.17
24 | G74A G86A | 0

Row | Variant | self-cleavage
25 | G54A A107G | 0.47
26 | U20A U52G | 1.58
27 | U9C G55A | 0.48
28 | U14A A57G | 0.75
29 | G34A A138G | 1.68
30 | C17U A22U | 1.21
31 | A59G U73C | 0.07
32 | U52C U87A | 0.08
33 | U15A U91A | 0.77
34 | U62A C66U | 0.01
35 | G34U U47C | 2.18
36 | A31U U119A | 1.17
37 | A94U A142C | 0.09
38 | U109A A140G | 0.96
39 | U26A G32A | 0.44
40 | A50C U132C | 1.02
41 | A42G A67U | 0.17
42 | U12G G44U | 1.1
43 | U14C A69U | 0.07
44 | U14C C63A | 0.06
45 | U47A U134C | 1.39
46 | U13C G33A | 0.81
47 | G33U A69G | 0.69
48 | C76A U87C | 0.38

Row | Variant | self-cleavage
49 | A6U A107G | 1.05
50 | A42G G144A | 1.17
51 | A117G C120U | 2.18
52 | A59G C61G | 0
53 | U12C A138U | 1.21
54 | U39A G60A | 0.05
55 | C84A U112C | 0.16
56 | U26A U87G | 0.13
57 | U26A C84U | 0.02
58 | U13A G21U | 0.47
59 | G97A A121C | 0.12
60 | A57U A92U | 0.07
61 | U104A U108C | 1.14
62 | U20C G21A | 1.12
63 | G72U U91A | 0.49
64 | U100C C131U | 2.27
65 | A107G U134A | 1.45
66 | G21A A142G | 1.66
67 | U12C U102G | 0.88
68 | C37U | 1.23
69 | U112A A140G | 1.46
70 | U109C U143C | 1.29
71 | C84U C98G | 0.08
72 | C19A A124G | 0.58

Row | Variant | self-cleavage
73 | G72A | 1.3
74 | U15C G49U | 0.94
75 | A42C A59G | 0.45
76 | U14C U104A | 1.04
77 | A2G U29A | 1.14
78 | A2G U108C | 0.94
79 | U85A U104A | 0.03
80 | U91G U143C | 0.07
81 | U47A A57C | 0.06
82 | A24U A67G | 0.43
83 | C37U C56U | 0.11
84 | A6U U23C | 1.31
85 | C113A A141G | 1.23
86 | U12C A79G | 1.1
87 | U26G G139A | 1.47
88 | U52A U134A | 1.04
89 | A59U A129G | 0.86
90 | U73A A79U | 2.48
91 | U108C U143A | 0.26
92 | A64G G105A | 0.03
93 | A43G U45G | 1.53
94 | U39G U130C | 1.25
95 | U26A A30U | 1.56
96 | A50G A69C | 0

Row | Variant | self-cleavage
97 | U112C U115A | 1.39
98 | U9A U96C | 0.19
99 | A94G C113U | 0.09
100 | U39C G126A | 1.18
101 | U20A G36A | 0.94
102 | A69G U108C | 0.68
103 | G35A A77U | 0.8
104 | G80C A141G | 1.04
105 | A142U | 1.22
106 | U85G U143C | 0.13
107 | U62G U130C | 0.11
108 | U73C G135A | 1.07
109 | U91A A138G | 0.84
110 | A31U U81C | 0.75
111 | U96C U102A | 0.11
112 | A77G C110U | 0.71
113 | U13G U102C | 0.66
114 | G33C A65G | 0
115 | U45G | 1.18
116 | U23A A124G | 0.94
117 | U12G U73A | 1.68
118 | A30U U73C | 1.8
119 | U1A U112C | 1.03
120 | U39C A117G | 1.37

Row | Variant | self-cleavage
121 | C3A G55C | 0.07
122 | U23C A79G | 1.4
123 | C19U U104A | 1.07
124 | A117G G122U | 1.52
125 | U15A A140G | 1.11
126 | A124G A138U | 1.23
127 | U26A U132C | 1.15
128 | A22G U73A | 1.29
129 | U23A A50G | 1.25
130 | U20G A57U | 0.21
131 | C28U U47G | 0.7
132 | U9C A79C | 1.2
133 | U119A A129G | 1.45
134 | U20G U85A | 0.24
135 | C103A G135A | 0.87
136 | U26C G74U | 1.42
137 | U13C C146U | 1.64
138 | A79U | 1.85
139 | U20C U46G | 1.52
140 | G32A A65U | 0.1
141 | A65G U109G | 0.23
142 | U104A G114U | 1.09
143 | G34A U108C | 1.16
144 | U73C C146U | 1.04

Row | Variant | self-cleavage
145 | A92G G97C | 0.06
146 | A6G U46C | 0.8
147 | U100A A138U | 0.89
148 | U62A C99A | 0.03
149 | U15G U108C | 1.06
150 | A77C U96C | 0.09
151 | G135U A140U | 1.13
152 | G36A A142G | 1.09
153 | G34U A138G | 1.56
154 | U87C A117U | 0.19
155 | G36A A94G | 0.34
156 | C111U A138G | 2.01
157 | U26A U39A | 0.99
158 | A69U A77G | 0.07
159 | U15C A31G | 0.75
160 | G4A U130C | 1.38
161 | U45A G137U | 1.77
162 | U46C U47G | 1.53
163 | U85C C146U | 0.27
164 | G97U A138U | 0.11
165 | A43U C99U | 0.2
166 | U1A G106A | 1.44
167 | A129C U134C | 1.54
